Measurements reported in publication PMC8163826.
Like-named read-outs stand apart in the source and are kept apart here.

Key:
[1] = target: RSV CA protein (Rous sarcoma virus); assay: cryo-EM structure; single-particle cryo-EM of T = 1 and T = 3 icosahedral CLPs; 500 µM CA assembled in 1 M NaPO4 at pH 8, diluted 1:4
[2] = target: RSV CA protein (Rous sarcoma virus); assay: as above; remark: listed apart in the source
[3] = target: RSV CASPNC (Rous sarcoma virus); assay: cryo-EM structure; cryo-electron tomography and subtomogram averaging of CASPNC CLPs (regular tubes and polyhedrons) assembled in the presence of 100 µM IP6
[4] = target: RSV CASPNC (Rous sarcoma virus); assay: as above; remark: listed apart in the source

Substance | stoichiometry N [1] | stoichiometry N [2] | stoichiometry N [3] | stoichiometry N [4]
RSV CA protein (natural protein) | 6 | 5 | – | –
RSV CASPNC (domain or fragment) | – | – | 5 | 6
